The values that follow come from paper PMC3826667, “S100A9 protein is a novel ligand for the CD85j receptor and its interaction is implicated in the control of HIV-1 replication by NK cells” (Retrovirology, 2013).

The target of the experiment is T1, recombinant CD85j-Fc fusion protein (human, UniProt Q8NHL6 24-461).
T1 construct: CD85j (LILRB1, ILT2, LIR-1), human; also called CD85j fusion protein; LILRB1; source: bought: R&D System
The experiment can be described thus: ELISA; anti-GST mAb-coated wells, 4 ug/mL GST-tagged S100A8 or S100A9 captured, increasing amounts of CD85j-Fc, 2 h at 37°C; detected with HRP anti-human-Fc. The conditions noted are these: both partners purified.

T1 sequence (Q8NHL6 24-461): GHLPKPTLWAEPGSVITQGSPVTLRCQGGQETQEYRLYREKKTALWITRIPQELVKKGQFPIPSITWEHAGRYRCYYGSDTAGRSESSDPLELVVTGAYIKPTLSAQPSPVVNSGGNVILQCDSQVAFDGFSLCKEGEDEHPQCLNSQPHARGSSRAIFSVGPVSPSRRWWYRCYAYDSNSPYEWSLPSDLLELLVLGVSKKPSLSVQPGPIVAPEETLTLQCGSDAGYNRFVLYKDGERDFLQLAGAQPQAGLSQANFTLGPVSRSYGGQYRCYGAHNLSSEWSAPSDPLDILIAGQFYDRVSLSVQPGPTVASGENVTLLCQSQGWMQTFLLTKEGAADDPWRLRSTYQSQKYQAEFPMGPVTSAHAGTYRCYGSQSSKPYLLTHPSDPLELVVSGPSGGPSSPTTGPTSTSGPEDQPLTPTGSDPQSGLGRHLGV

B1: full-length recombinant GST-tagged human S100A9 monomer (natural protein, UniProt P06702 1-114, looked up)
chain: MTCKMSQLERNIETIINTFHQYSVKLGHPDTLNQGEFKELVRKDLQNFLKKENKNEKVIEHIMEDLDTNADKQLSFEEFIMLMARLTWASHEKMHEGDEGPGHHHKPGLGEGTP
notes: S100A9, human, full-length recombinant, GST-tagged; source: bought: Tebu-bio
For the molecule B1, the binding result was “binds”.

B2: recombinant GST-tagged human S100A8 monomer protein (natural protein, UniProt P05109 1-93, looked up)
chain: MLTELEKALNSIIDVYHKYSLIKGNFHAVYRDDLKKLLETECPQYIRKKGADVWFKELDINTDGAVNFQEFLILVIKMGVAAHKKSHEESHKE
notes: S100A8, human, recombinant, GST-tagged; source: bought: Tebu-bio
For B2, the binding result was “binds”.
